The subject of this series is Escherichia coli TOP10. As to the kind of experiment: shrunken log2 fold change of peptide-encoding DNA abundance (4.5 h post-induction vs induction); higher = less antimicrobial activity (less host growth inhibition). The note with it: time post-induction: 4.5 h; library: site-saturation at positions 5, 18, 19, 20.
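Note: peptides expressed intracellularly from a pBAD plasmid library in pooled LB shake-flask culture, induced with 0.3% L-arabinose, DNA abundance read by NGS, three biological replicates, DESeq2 with apeglm shrinkage.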

For RRIRNRPPRLPRPRPRPCDWPRP, the “shrunken log2 fold change” value is -0.0698. As for RRIRNRPPRLPRPRPRPARHPRP, the “shrunken log2 fold change” value is 0.0771. As for RRIRSRPPRLPRPRPRPVYSPRP, the “shrunken log2 fold change” value was -0.0582.

For RRIRPRPPRLPRPRPRPYGIPRP, the “shrunken log2 fold change” value is -0.533.

As for RRIRCRPPRLPRPRPRPNIQPRP, the “shrunken log2 fold change” value is -0.584. Next, RRIRSRPPRLPRPRPRPLGSPRP: 0.193; RRIRWRPPRLPRPRPRPNIAPRP: -0.121.

As for RRIRCRPPRLPRPRPRPNCPPRP, the “shrunken log2 fold change” value was -0.413. With RRIRMRPPRLPRPRPRPVCLPRP, the “shrunken log2 fold change” value stood at 0.174. Turning to RRIRVRPPRLPRPRPRPPHLPRP, the “shrunken log2 fold change” value is -0.0283. Next, RRIRQRPPRLPRPRPRPDTDPRP: -0.00927; RRIRRRPPRLPRPRPRPGTSPRP: 0.0636. Next, RRIRGRPPRLPRPRPRPQWVPRP: 0.218; RRIRYRPPRLPRPRPRPGEPPRP: -0.0235. Take RRIRDRPPRLPRPRPRPEAVPRP: the “shrunken log2 fold change” value came to 0.0262.

On to RRIRQRPPRLPRPRPRPWTKPRP, for which the “shrunken log2 fold change” value was -0.00887. For RRIRRRPPRLPRPRPRPVECPRP the value was -0.0238; for RRIRNRPPRLPRPRPRPQAKPRP, -0.00911; for RRIRARPPRLPRPRPRPLMKPRP, 0.106. For RRIRNRPPRLPRPRPRPDYWPRP, the “shrunken log2 fold change” value is -0.21. Next, RRIRGRPPRLPRPRPRPIQLPRP: 0.043; RRIRWRPPRLPRPRPRPKSNPRP: -0.164; RRIRERPPRLPRPRPRPFDTPRP: -0.267. For RRIRNRPPRLPRPRPRPCTMPRP the value was -0.199. For RRIRARPPRLPRPRPRPFGRPRP, the “shrunken log2 fold change” value is 0.547. Turning to RRIRCRPPRLPRPRPRPLLSPRP, the “shrunken log2 fold change” value is -0.306. Take RRIRQRPPRLPRPRPRPYKQPRP: the “shrunken log2 fold change” value worked out at 0.0225. For RRIRDRPPRLPRPRPRPGFQPRP the value was 0.252. For RRIRGRPPRLPRPRPRPTDGPRP the value was 0.361; for RRIRLRPPRLPRPRPRPHVLPRP, -0.0737; for RRIRHRPPRLPRPRPRPEVYPRP, -0.0062. With RRIRSRPPRLPRPRPRPVFEPRP, the “shrunken log2 fold change” value was -0.0222. For the sequence RRIRDRPPRLPRPRPRPMHKPRP, the “shrunken log2 fold change” value is 0.0101. Take RRIRERPPRLPRPRPRPLWMPRP: the “shrunken log2 fold change” value amounted to 0.00675. For the sequence RRIRDRPPRLPRPRPRPGMDPRP, the “shrunken log2 fold change” value was 0.216. Regarding RRIRQRPPRLPRPRPRPDIEPRP, the “shrunken log2 fold change” value is -0.32. For RRIRNRPPRLPRPRPRPSSGPRP the value was -0.649; for RRIRTRPPRLPRPRPRPLHSPRP, 0.186. For RRIRMRPPRLPRPRPRPFVVPRP the value was -0.254. As for RRIRNRPPRLPRPRPRPQMRPRP, the “shrunken log2 fold change” value turned out to be 0.308.

With RRIRNRPPRLPRPRPRPIDEPRP, the “shrunken log2 fold change” value is -0.0586. For RRIRTRPPRLPRPRPRPSLFPRP the value was -0.248; for RRIRWRPPRLPRPRPRPEAMPRP, 0.142; for RRIRLRPPRLPRPRPRPLRHPRP, 0.171. Turning to RRIRMRPPRLPRPRPRPLIEPRP, the “shrunken log2 fold change” value turned out to be 1.14. On to RRIRERPPRLPRPRPRPQSGPRP, for which the “shrunken log2 fold change” value is 0.00436.

Take RRIRHRPPRLPRPRPRPANNPRP: the “shrunken log2 fold change” value was -0.613. Next, RRIRWRPPRLPRPRPRPQKYPRP: -0.348. Take RRIRDRPPRLPRPRPRPNKNPRP: the “shrunken log2 fold change” value is -0.343. Turning to RRIRTRPPRLPRPRPRPWASPRP, the “shrunken log2 fold change” value is -0.068. For the sequence RRIRGRPPRLPRPRPRPIQAPRP, the “shrunken log2 fold change” value was found to be 1.16. Next, RRIRSRPPRLPRPRPRPWCFPRP: -0.715; RRIRHRPPRLPRPRPRPHNPPRP: -0.216; RRIRPRPPRLPRPRPRPHDTPRP: -0.272. For the sequence RRIRQRPPRLPRPRPRPSYMPRP, the “shrunken log2 fold change” value was -0.301.

As for RRIRCRPPRLPRPRPRPFRCPRP, the “shrunken log2 fold change” value is -0.0165. Next, RRIRWRPPRLPRPRPRPEQWPRP: 0.724.

On to RRIRWRPPRLPRPRPRPDYIPRP, for which the “shrunken log2 fold change” value was -0.00749. With RRIRIRPPRLPRPRPRPPHRPRP, the “shrunken log2 fold change” value was -0.144.

Take RRIRRRPPRLPRPRPRPAEQPRP: the “shrunken log2 fold change” value worked out at 0.275. Next, RRIRPRPPRLPRPRPRPIIGPRP: -0.0597; RRIRSRPPRLPRPRPRPRMGPRP: 0.234. Next, RRIRARPPRLPRPRPRPAMSPRP: 0.43; RRIRDRPPRLPRPRPRPHPYPRP: 0.0304; RRIRRRPPRLPRPRPRPDKGPRP: -0.0101. Next, RRIRTRPPRLPRPRPRPFAYPRP: -0.136. In the case of RRIRDRPPRLPRPRPRPICPPRP, the “shrunken log2 fold change” value was 0.106.

With RRIRKRPPRLPRPRPRPVMKPRP, the “shrunken log2 fold change” value amounted to 0.535. In the case of RRIRPRPPRLPRPRPRPGFSPRP, the “shrunken log2 fold change” value was -0.0307. Next, RRIRYRPPRLPRPRPRPSEQPRP: -0.0359; RRIRNRPPRLPRPRPRPGEEPRP: -0.0107; RRIRSRPPRLPRPRPRPQCKPRP: 0.0936. Take RRIRERPPRLPRPRPRPPSAPRP: the “shrunken log2 fold change” value was 0.632. For RRIRWRPPRLPRPRPRPCIGPRP the value was -0.148; for RRIRPRPPRLPRPRPRPHNKPRP, -0.508. For RRIRMRPPRLPRPRPRPGGKPRP the value was 0.583; for RRIRMRPPRLPRPRPRPDIKPRP, 1.51; for RRIRFRPPRLPRPRPRPLAAPRP, 0.315. Next, RRIRYRPPRLPRPRPRPCQNPRP: 0.0275; RRIRERPPRLPRPRPRPIIKPRP: -0.703.

Regarding RRIRMRPPRLPRPRPRPPLHPRP, the “shrunken log2 fold change” value stood at 0.691. Consider RRIRVRPPRLPRPRPRPPKIPRP, for which the “shrunken log2 fold change” value was -0.05.

Turning to RRIRIRPPRLPRPRPRPPRDPRP, the “shrunken log2 fold change” value turned out to be 0.203.

As for RRIRGRPPRLPRPRPRPMQAPRP, the “shrunken log2 fold change” value was determined as 0.256. Next, RRIRERPPRLPRPRPRPHISPRP: -0.3. In the case of RRIRQRPPRLPRPRPRPPSRPRP, the “shrunken log2 fold change” value stood at 0.138.

Turning to RRIRTRPPRLPRPRPRPTHSPRP, the “shrunken log2 fold change” value came to 0.384. For RRIRCRPPRLPRPRPRPICVPRP, the “shrunken log2 fold change” value is 0.0832. Next, RRIRLRPPRLPRPRPRPRNRPRP: 0.267; RRIRQRPPRLPRPRPRPGSHPRP: -0.108; RRIRRRPPRLPRPRPRPFAVPRP: 0.0874. For RRIRMRPPRLPRPRPRPHFHPRP the value was -0.376. Next, RRIRPRPPRLPRPRPRPPDYPRP: -0.107. RRIRYRPPRLPRPRPRPIKEPRP: the “shrunken log2 fold change” value is 0.0062. For RRIRARPPRLPRPRPRPNYVPRP the value was -0.35.

As for RRIRARPPRLPRPRPRPTDNPRP, the “shrunken log2 fold change” value worked out at 0.152.

Take RRIRWRPPRLPRPRPRPMLAPRP: the “shrunken log2 fold change” value was 1. Consider RRIRVRPPRLPRPRPRPYPFPRP, for which the “shrunken log2 fold change” value was -0.863. Next, RRIRWRPPRLPRPRPRPWGVPRP: 0.132. RRIRYRPPRLPRPRPRPMYFPRP: the “shrunken log2 fold change” value is -0.48. For RRIRHRPPRLPRPRPRPNGGPRP the value was -0.147. For RRIRSRPPRLPRPRPRPQGTPRP the value was 0.0846; for RRIRSRPPRLPRPRPRPLMFPRP, -0.321; for RRIRDRPPRLPRPRPRPSWNPRP, -0.365.

Consider RRIRDRPPRLPRPRPRPWWYPRP, for which the “shrunken log2 fold change” value was -0.738. For RRIRGRPPRLPRPRPRPRPQPRP the value was 0.863. For RRIRARPPRLPRPRPRPWHPPRP the value was -0.00894; for RRIRNRPPRLPRPRPRPRACPRP, -0.0233; for RRIRSRPPRLPRPRPRPLDWPRP, 0.262. As to RRIRFRPPRLPRPRPRPAICPRP, the “shrunken log2 fold change” value came to 0.00851. For RRIRWRPPRLPRPRPRPKWNPRP the value was -0.095; for RRIRMRPPRLPRPRPRPLQHPRP, 1.47. Next, RRIRMRPPRLPRPRPRPDFIPRP: -0.0216; RRIRFRPPRLPRPRPRPFFSPRP: -0.59. Next, RRIRNRPPRLPRPRPRPTDWPRP: 0.328. For RRIRRRPPRLPRPRPRPCMRPRP, the “shrunken log2 fold change” value amounted to 0.264. With RRIRLRPPRLPRPRPRPDNSPRP, the “shrunken log2 fold change” value is -0.0436. For RRIRCRPPRLPRPRPRPVGWPRP the value was 0.64; for RRIRYRPPRLPRPRPRPFPKPRP, -0.28; for RRIRTRPPRLPRPRPRPQKDPRP, -0.455. Next, RRIRERPPRLPRPRPRPFPNPRP: -0.165; RRIRWRPPRLPRPRPRPQNTPRP: 0.591. Turning to RRIRHRPPRLPRPRPRPIKHPRP, the “shrunken log2 fold change” value was -0.341. Turning to RRIRQRPPRLPRPRPRPETGPRP, the “shrunken log2 fold change” value came out at 0.0496.

Turning to RRIRIRPPRLPRPRPRPNPLPRP, the “shrunken log2 fold change” value is -0.0976.

Values taken from the supplement of paper PMC9112550, “Optimization of the antimicrobial peptide Bac7 by deep mutational scanning” (BMC Biology, 2022).
